This note sets out measurements from PMC6141180 (2018).

Assay [1] addresses T1, dual (pThr180, pTyr182) phosphorylated p38α (mouse, UniProt P47811 1-360, phosphothreonine at 180, phosphotyrosine at 182). Briefly: ITC; p38α dually phosphorylated.
In assay [2] the target is T2, p38α (MAPK14), nonphosphorylated (mouse, UniProt P47811 1-360). The experiment in a line: FP; displacement of fluorescein-labeled MKK3b peptide.
The target in assay [3] is T2, p38α (MAPK14), nonphosphorylated. Briefly: ITC. Background: Isothermal titration calorimetry measures the heat released or taken up as one component is titrated into another.
Assay [4] addresses T1, dual (pThr180, pTyr182) phosphorylated …. Briefly: ITC; p38α dually phosphorylated; TAB1 pSer423.

T2 sequence (P47811 whole entry): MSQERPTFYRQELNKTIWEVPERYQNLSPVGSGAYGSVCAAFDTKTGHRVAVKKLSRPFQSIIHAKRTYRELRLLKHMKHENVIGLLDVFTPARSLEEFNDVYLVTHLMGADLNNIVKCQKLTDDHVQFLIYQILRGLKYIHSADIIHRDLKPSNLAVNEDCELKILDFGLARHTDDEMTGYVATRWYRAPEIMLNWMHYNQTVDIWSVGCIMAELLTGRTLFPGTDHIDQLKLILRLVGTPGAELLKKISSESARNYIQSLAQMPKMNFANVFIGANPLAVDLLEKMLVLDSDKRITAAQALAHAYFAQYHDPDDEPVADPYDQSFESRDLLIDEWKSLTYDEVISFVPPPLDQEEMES
T1 sequence (P47811 whole entry): as above

B1: TAB1 (residues 384–412) peptide (peptide)
peptide: Ac-RVYPVSVPYSSAQSTSKTSVTLSLVMPSQ-NH2
What is called Kd is the constant that tells how readily two partners part at equilibrium. Lower therefore signals a tighter complex. As usually defined, the IC50 is the concentration at which inhibition is half-maximal. For B1, the Kd in assay [1] came to 2000 nM; in assay [3], 2900 nM. The IC50 in assay [2] came out at 11000 nM.

B2: MKK3b peptide, unlabeled (peptide)
peptide: Ac-GKSKRKKDLRISCMSKP-NH2
In assay [2], B2 returned an IC50 of 15000 nM.

B3: TAB1 (residues 1–438) (domain or fragment)
chain: MAAQRRSLLQSEQQPSWTDDLPLCHLSGVGSASNRSYSADGKGTESHPPEDNWLKFRSENNCFLYGVFNGYDGNRVTNFVAQRLSAELLLGQLNTEHTEADVRRVLLQAFDVVERSFLESIDDALAEKASLQSQLPEGVPQHQLPPQYQKILERLKALEREISGGAMAVVAVLLNSKLYVANVGTNRALLCKSTVDGLQVTQLNMDHTTENEDELFRLSQLGLDAGKIKQMGVICGQESTRRIGDYKVKYGYTDIDLLSAAKSKPIIAEPEIHGAQPLDGVTGFLVLMSEGLYKALEAAHGPGQANQEIAAMIDTEFAKQTSLDAVAQAVVDRVKRIHSDTFASGGERAKFCPRHEDMTLLVRNFGYPLGEMSQPTPTPAPGGRVYPVSVPYSSAQSTSKTSVTLSLVMPSQGQMVNGSHSASTLDEATPTLTNQSPT
Molecule B3 came in with an equilibrium dissociation constant (Kd) in assay [3] of 1500 nM.

B4: TAB1 (residues 1–438) phosphorylated at Serine 423 (domain or fragment)
chain: MAAQRRSLLQSEQQPSWTDDLPLCHLSGVGSASNRSYSADGKGTESHPPEDNWLKFRSENNCFLYGVFNGYDGNRVTNFVAQRLSAELLLGQLNTEHTEADVRRVLLQAFDVVERSFLESIDDALAEKASLQSQLPEGVPQHQLPPQYQKILERLKALEREISGGAMAVVAVLLNSKLYVANVGTNRALLCKSTVDGLQVTQLNMDHTTENEDELFRLSQLGLDAGKIKQMGVICGQESTRRIGDYKVKYGYTDIDLLSAAKSKPIIAEPEIHGAQPLDGVTGFLVLMSEGLYKALEAAHGPGQANQEIAAMIDTEFAKQTSLDAVAQAVVDRVKRIHSDTFASGGERAKFCPRHEDMTLLVRNFGYPLGEMSQPTPTPAPGGRVYPVSVPYSSAQSTSKTSVTLSLVMPSQGQMVNGSHSASTLDEATPTLTNQSPT
modifications: phosphoserine at 423
In assay [4], B4 returned a Kd of 1700 nM.
